# Paper doi:10.1101/2024.02.29.582761
# Assays:
# Assay in all cases: BLI
# [1] = target: His-SUMO-XB-GGS peptide (E. coli)
# [2] = target: His-SUMO-GroTAC1 (E. coli)
# [3] = target: His-SUMO-GGS-SBP peptide
Kd [1],Kd [2],Kd [3],Substance
65 nM,70 nM,,ClpX (from UniProt P0A6H1 1-424) (enzyme)
,154 nM,94 nM,GroEL (from UniProt P0A6F5 1-548) (natural protein)
